Data as given in US9090686B2, “Antibodies for the treatment of HIV” (Pierre Fabre Medicament, priority 2009, dated 2015).
Residue numbers refer to the chain shown, from its start.

Columns and labels:
Type in all cases: cell-based
[1] = test system: HIV-1 X4 primary isolate 92UG024; experiment: Single cycle neutralization assay in human PBMC, isolate 92UG024; set-up: 92UG024 % inhibition of infected cells 90 / 92UG024 % inhibition of infected cells 80: unit not given here; settings: for 92UG024 % inhibition of infected cells 90: IC for 90% inhibition
Procedure: (§1) This assay is performed in 36 h using primary isolates KON, MN and 92UG024 concentrated and diluted accordingly to allow the detection 2% infected CD4 T lymphocytes after 2 days of infection.
(§2) Twenty-five microliters of various dilutions of Mabs 515H7, c515H7 and 301aE5 were incubated for 1 h at 37° C. with 25 μl of virus. Human PBMC (25 μl) at 20×10^6 cells/ml were added to the Mab/virus mixture in a 96-well plate (U-bottom, Costar 3599) and cultured for 36 h in RPMI 1640 10% FCS and 20 U/ml IL-2 (R&D Systems, Minneapolis, Minn.).
(§3) After 2 days of culture, HIV-infected lymphocytes were detected by intracellular staining of viral p24 Ag. Cells were fixed and permeabilized using both Cytofix/Cytoperm and Perm/Wash kits (BD Biosciences) according to the manufacturer and stained with a fluorescent anti-p24 Mab (FITC- or PE-anti-p24, clone KC57; Beckman Coulter/Immunotech, Hialeah, Fla.) used at a 1/160 dilution in Perm/Wash solution added for 15 min at 4° C. After washing in PBS with 3% FBS, PBMC were diluted in 300 μl of PBS before flow cytometry analysis (LSRII; BD Biosciences) with DIVA software (BD Biosciences). The percentage of p24-positive cells in the different samples was determined by gating 20,000 events on a living cell population identified by forward- and side-scatter parameters. The living cell subsets were analyzed with the live/dead solution kit (Invitrogen). The p24 Ag-positive value was obtained after subtraction of background events in mock-infected cells.
The percent of neutralization was defined as the reduction of p24-positive cells compared with control infected wells with no Mab. […]

human CXCR4 = human CXCR4 (Homo sapiens, UniProt P61073); experiment: SDF-1-induced calcium release in CHO-CXCR4 cells; set-up: expressed in transfected cells; settings: Mab 133 nM, SDF-1 100 nM
Sequence of human CXCR4 (P61073 whole entry): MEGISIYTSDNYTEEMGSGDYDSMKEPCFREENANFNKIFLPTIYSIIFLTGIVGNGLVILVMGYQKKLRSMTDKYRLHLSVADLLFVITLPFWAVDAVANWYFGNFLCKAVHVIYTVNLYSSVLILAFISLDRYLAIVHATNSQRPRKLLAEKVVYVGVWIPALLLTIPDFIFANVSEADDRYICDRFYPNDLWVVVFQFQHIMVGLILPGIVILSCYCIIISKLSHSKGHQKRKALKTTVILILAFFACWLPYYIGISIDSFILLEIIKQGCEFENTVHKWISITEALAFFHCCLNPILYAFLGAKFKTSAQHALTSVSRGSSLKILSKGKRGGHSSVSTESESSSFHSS
From the text: This functional assay was designed to monitor CXCR4 receptor signaling via stimulation of the phospholipase C pathway, inducing calcium liberation from intracellular stores from the endoplasmic reticulum.
CHO-K1 cells, stably and constitutively expressing human CXCR4 receptor were obtained upon transfection of naïve CHO-K1 cells (ATCC CCL-61) with a mammalian expression vector carrying the whole coding sequence of human CXCR4 receptor (RefSeq NM_003467). Cells were propagated in complete culture medium [DMEM-Ham's F12 supplemented with 5% fetal calf serum (FCS) and 500 μg/ml of geneticin]. Cells were plated in black 96MW plates at a density of 100,000 cells/well in appropriate culture medium. Cells were starved overnight before conducting the experiments. Cells are loaded with the fluorescent calcium dye (Fluo-4 No Wash, Invitrogen US) in loading buffer [HBSS 1×, HEPES 20 mM, Probenicid acid 25 mM] for 30 min. at 37° C. followed by 30 min. at 25° C. Stimulation by SDF-1 was performed by direct injection into each well. For antagonism experiments, 10 μl of Mab solution are added directly into the loading buffer at least 10 min. before SDF-1. Kinetic fluorescence measurements are performed on a multi-mode fluorescence microplate reader Mithras LB940 (Berthold) using the following settings: excitation at 485 nm, emission at 535 nm, excitation energy at 10000 arbitrary units. Fluorescence in each well is recorded during 0.1 second every second and for a time period of 20 sec. prior SDF-1 injection (basal signal). Then 20 μl of SDF-1 are injected and data recording follows for a time period of 2 min. Each experimental condition is performed in duplicate. Values for each well are first corrected by subtracting the basal fluorescence and the fluorescence emitted by a control well without cells. Relative data are expressed as a percentage of the maximal stimulation obtained by SDF-1 (100 nM).

[2] = test system: HIV-1 X4 primary isolate KON; experiment: Single cycle neutralization assay in human PBMC, isolate KON; settings: IC for 80% inhibition
[3] = test system: HIV-1 X4 primary isolate KON; experiment: as above; settings: for KON % inhibition of infected cells 90: IC for 90% inhibition, human PBMC
Procedure: as §1, §2, §3
(§4) The percent of neutralization was defined as the reduction of p24-positive cells compared with control infected wells with no Mab. The neutralizing titer was defined as the concentration of antibody (interpolated between successive dilutions performed in triplicate) that allows a 90% decrease in the percentage of infected cells.
This assay was performed in 36 h using primary isolate KON concentrated and diluted accordingly to allow the detection 2% infected CD4 T lymphocytes after 2 days of infection.
[…] Human PBMC (25 p.1) at 20×10^6 cells/ml were added to the Mab/virus mixture in a 96-well plate (U-bottom, Costar 3599) and cultured for 36 h in RPMI 1640 10% FCS and 20 U/ml IL-2 (R&D Systems, Minneapolis, Minn.).
as §4, with “[…]” for “a 90%”

B1: 515H7: murine anti-CXCR4 monoclonal antibody; light chain variable domain SEQ ID No. 7, heavy chain variable domain SEQ ID No. 8 (antibody, listed as Mus musculus, V domains shown)
VH: EVNLVESGGGLVQPGGSLRLSCATSGFTFTDNYMSWVRQPPGKALEWLGFIRNKANGYTTDYSASVRGRFTISRDNSQSILYLQMNALRAEDSATYYCARDVGSNYFDYWGQGTTLTVSS
VL: DIVMSQSPSSLAVSAGEKVTMSCKSSQSLFNSRTRKNYLAWYQQKPGQSPKLLIYWASARDSGVPARFTGSGSETYFTLTISRVQAEDLAVYYCMQSFNLRTFGGGTKLEIK
inhibition of HIV-1 X4 92UG024 primary isolate replication in PBMC (in words) [1]: able to inhibit | 92UG024 % inhibition of infected cells 90 ([1]; human PBMC): 10 | inhibition of the SDF-1-induced calcium signal (in words) (human CXCR4): strong inhibition | KON % inhibition of infected cells 80 [2]: 8 µg/mL | inhibition of HIV-1 X4 KON primary isolate replication in PBMC (in words) [3]: able to inhibit | KON % inhibition of infected cells 90 [3]: 15 µg/mL

B2: 301aE5: murine anti-CXCR4 monoclonal antibody; light chain variable domain SEQ ID No. 34, heavy chain variable domain SEQ ID No. 35 (antibody, listed as Mus musculus, V domains shown)
VH: QVQLKESGPGLVAPSQSLSITCTVSGFSLTDYGVYWVRQPPGKGLEWLGMIWGDGTTDYNSALKSRLSISKDNSKSQVFLKMNTLQTDDTARYYCARGRQFGFDYWGQGTTLTVSS
VL: B1 VL with S22R, Y55F, A59I, D61E, A66D, E74G, Y76D, R83S, M95K, F98Y
inhibition of HIV-1 X4 92UG024 primary isolate replication in PBMC (in words) [1]: able to inhibit | 92UG024 % inhibition of infected cells 80 ([1]; IC for 80% inhibition, human PBMC): 150 | 92UG024 % inhibition of infected cells 90 ([1]; human PBMC): >150 | inhibition of the SDF-1-induced calcium signal (in words) (human CXCR4): partial inhibition | KON % inhibition of infected cells 80 [2]: >150 µg/mL | inhibition of HIV-1 X4 KON primary isolate replication in PBMC (in words) [3]: able to inhibit | KON % inhibition of infected cells 90 [3]: >150 µg/mL

B3: c515H7: chimeric antibody 515H7: murine variable domains fused to human Ckappa and IgG1/IgG2/IgG4 constant domains; isotype tested not stated (antibody, V domains shown)
VH: B1 VH
VL: B1 VL
inhibition of HIV-1 X4 92UG024 primary isolate replication in PBMC (in words) [1]: able to inhibit | 92UG024 % inhibition of infected cells 90 ([1]; human PBMC): 15 | inhibition of the SDF-1-induced calcium signal (in words) (human CXCR4): strong inhibition | KON % inhibition of infected cells 80 [2]: 10 µg/mL | inhibition of HIV-1 X4 KON primary isolate replication in PBMC (in words) [3]: able to inhibit | KON % inhibition of infected cells 90 [3]: 20 µg/mL
